Earlier results in US20210000129A1, “COMPOSITION FOR LOWERING BLOOD PRESSURE AND/OR REDUCING NEUTRAL FATS” (MORINAGA MILK INDUSTRY CO., LTD., priority 2018, published 2021).

Columns and labels:
[1] = molecular target: angiotensin converting enzyme (Homo sapiens, UniProt P12821); details: known from References 1 to 3
dipeptidyl-peptidase IV = dipeptidyl-peptidase IV (Homo sapiens, UniProt P27487); details: known from References 1 to 3
Sequence of dipeptidyl-peptidase IV (P27487 whole entry, species assumed): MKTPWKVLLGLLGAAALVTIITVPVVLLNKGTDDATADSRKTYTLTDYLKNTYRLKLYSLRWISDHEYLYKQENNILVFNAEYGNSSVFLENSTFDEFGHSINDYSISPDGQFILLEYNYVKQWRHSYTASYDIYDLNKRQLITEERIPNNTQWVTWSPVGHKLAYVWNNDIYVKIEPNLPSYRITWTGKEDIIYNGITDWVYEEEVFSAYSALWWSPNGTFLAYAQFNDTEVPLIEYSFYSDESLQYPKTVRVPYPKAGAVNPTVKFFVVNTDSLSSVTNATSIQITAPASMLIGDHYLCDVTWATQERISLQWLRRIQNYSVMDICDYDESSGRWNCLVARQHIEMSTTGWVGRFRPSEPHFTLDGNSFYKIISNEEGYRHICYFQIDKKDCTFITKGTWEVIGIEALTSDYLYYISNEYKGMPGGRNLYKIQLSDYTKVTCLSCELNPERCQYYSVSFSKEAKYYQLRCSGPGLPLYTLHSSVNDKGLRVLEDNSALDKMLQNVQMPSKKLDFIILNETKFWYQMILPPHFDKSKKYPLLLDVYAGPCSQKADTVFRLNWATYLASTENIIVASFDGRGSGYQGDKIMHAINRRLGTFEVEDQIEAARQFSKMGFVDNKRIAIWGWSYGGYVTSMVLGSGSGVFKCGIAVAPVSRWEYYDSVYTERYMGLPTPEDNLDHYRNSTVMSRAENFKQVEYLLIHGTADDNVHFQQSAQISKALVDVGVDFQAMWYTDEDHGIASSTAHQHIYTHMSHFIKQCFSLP

Sequence of angiotensin converting enzyme (P12821 30-1306, species assumed): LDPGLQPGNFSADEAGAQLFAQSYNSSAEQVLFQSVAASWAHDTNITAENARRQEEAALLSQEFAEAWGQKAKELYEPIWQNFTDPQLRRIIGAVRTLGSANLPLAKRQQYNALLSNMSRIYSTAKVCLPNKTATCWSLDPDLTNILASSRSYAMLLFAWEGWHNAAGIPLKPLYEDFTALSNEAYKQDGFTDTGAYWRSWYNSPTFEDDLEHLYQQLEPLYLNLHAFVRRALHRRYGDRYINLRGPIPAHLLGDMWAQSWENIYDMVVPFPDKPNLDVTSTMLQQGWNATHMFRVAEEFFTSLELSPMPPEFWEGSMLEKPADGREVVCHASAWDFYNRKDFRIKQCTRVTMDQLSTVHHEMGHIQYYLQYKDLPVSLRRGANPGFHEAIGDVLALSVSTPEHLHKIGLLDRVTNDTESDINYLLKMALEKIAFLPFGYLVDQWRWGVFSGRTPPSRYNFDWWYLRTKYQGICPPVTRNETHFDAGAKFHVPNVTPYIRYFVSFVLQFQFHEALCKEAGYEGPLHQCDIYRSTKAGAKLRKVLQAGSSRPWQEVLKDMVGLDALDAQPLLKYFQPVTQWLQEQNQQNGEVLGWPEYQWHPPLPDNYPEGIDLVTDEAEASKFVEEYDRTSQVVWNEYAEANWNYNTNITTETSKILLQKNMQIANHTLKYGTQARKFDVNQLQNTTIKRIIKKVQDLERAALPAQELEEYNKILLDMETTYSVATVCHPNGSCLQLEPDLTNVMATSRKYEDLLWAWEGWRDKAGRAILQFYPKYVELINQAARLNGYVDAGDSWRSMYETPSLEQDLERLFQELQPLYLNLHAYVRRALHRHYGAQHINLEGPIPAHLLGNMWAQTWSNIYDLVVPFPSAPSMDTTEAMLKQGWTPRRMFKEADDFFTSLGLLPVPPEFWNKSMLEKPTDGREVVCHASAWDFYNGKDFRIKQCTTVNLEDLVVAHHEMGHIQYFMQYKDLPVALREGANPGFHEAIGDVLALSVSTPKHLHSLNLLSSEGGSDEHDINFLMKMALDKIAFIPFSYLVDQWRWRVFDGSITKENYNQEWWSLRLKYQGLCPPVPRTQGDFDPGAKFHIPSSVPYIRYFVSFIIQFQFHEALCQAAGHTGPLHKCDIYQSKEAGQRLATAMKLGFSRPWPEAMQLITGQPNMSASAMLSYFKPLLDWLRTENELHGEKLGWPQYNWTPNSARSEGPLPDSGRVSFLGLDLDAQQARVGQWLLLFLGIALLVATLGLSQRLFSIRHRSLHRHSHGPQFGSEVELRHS

Met-Lys-Pro (MKP) [tripeptide MKP]
angiotensin converting enzyme-inhibiting action [1]: angiotensin converting enzyme-inhibiting action
dipeptidyl-peptidase IV-inhibiting action (dipeptidyl-peptidase IV): dipeptidyl-peptidase IV-inhibiting action
